{"source": "paper PMC11166852", "about": "“Low-temperature features of the psychrophilic chaperonin from Pseudoalteromonas haloplanktis” (Archives of Microbiology, 2024)", "molecules": {"B1": {"name": "Cpn10 from Pseudoalteromonas haloplanktis (natural protein)", "chain": "MNIRPLHDRVIVKRLEEETKSAGGIVLTGSAAEKSTRGEVVAVGNGRTLDNGDVRALEVKVGDTVLFGSYVEKAEKIEGQEYLIMREDNILGIVG"}, "B2": {"name": "Escherichia coli GroES (natural protein, UniProt P0A6F9 1-97, looked up)", "chain": "MNIRPLHDRVIVKRKEVETKSAGGIVLTGSAAAKSTRGEVLAVGNGRILENGEVKPLDVKVGDIVIFNDGYGVKSEKIDNEEVLIMSESDILAIVEA", "notes": "GroES (Cpn10) of Escherichia coli; also called Ec GroES; source: E. coli, purified as described (Weissman et al. 1995; Hayer-Hartl et al. 1996; Kusmiercyk and Martin 2000)"}}, "key": {"[1]": {"molecular_target": "Cpn60 from Pseudoalteromonas haloplanktis (Pseudoalteromonas haloplanktis)", "experiment": "native gel or EMSA; native PAGE of purified proteins, Coomassie brilliant blue staining"}, "[2]": {"molecular_target": "Cpn60 from Pseudoalteromonas haloplanktis (Pseudoalteromonas haloplanktis)", "experiment": "negative-stain electron microscopy; 0.125 µM Cpn60 in buffer C preincubated at 5 °C or 25 °C; where indicated 1 mM ATP, 1 mM ADP and 0.375 µM Cpn10; 1% uranyl acetate"}, "[3]": {"molecular_target": "Cpn60 from Pseudoalteromonas haloplanktis (Pseudoalteromonas haloplanktis)", "experiment": "SEC; analytical gel filtration, Superdex 75 GL (10/300), buffer C (20 mM MOPS pH 7.2, 150 mM KCl, 5 mM MgCl2), run at 5 °C, in the absence or presence of 1 mM ATP"}, "[4]": {"molecular_target": "Cpn60 from Pseudoalteromonas haloplanktis (Pseudoalteromonas haloplanktis)"}, "[5]": {"molecular_target": "single-ring SR-GroEL (Escherichia coli) (UniProt P0A6F5)", "experiment": "SEC; analytical gel filtration, Superdex 75 GL (10/300), buffer C (20 mM MOPS pH 7.2, 150 mM KCl, 5 mM MgCl2), run at 5 °C, in the absence or presence of 1 mM ATP"}, "[6]": {"molecular_target": "Cpn60 from Pseudoalteromonas haloplanktis (Pseudoalteromonas haloplanktis)", "experiment": "MST; Cpn60 labelled with NT-647-NHS, serial dilutions of Cpn10 in buffer C with 1 mM ADP, 25 °C, Monolith NT.115, MST power 80%"}, "Escherichia coli GroEL": {"molecular_target": "T1, Escherichia coli GroEL (Escherichia coli, UniProt P0A6F5 1-548, fluorophore from the NT-647-NHS labeling kit (in the MST measurements only))", "T1 construct": "GroEL (Cpn60) of Escherichia coli; Tetradecamer (MW 800 kDa); also called Ec GroEL; Ec chaperonin; source: E. coli, purified as described (Weissman et al. 1995; Hayer-Hartl et al. 1996; Kusmiercyk and Martin 2000); copies: 14", "T1 sequence (P0A6F5 whole entry)": "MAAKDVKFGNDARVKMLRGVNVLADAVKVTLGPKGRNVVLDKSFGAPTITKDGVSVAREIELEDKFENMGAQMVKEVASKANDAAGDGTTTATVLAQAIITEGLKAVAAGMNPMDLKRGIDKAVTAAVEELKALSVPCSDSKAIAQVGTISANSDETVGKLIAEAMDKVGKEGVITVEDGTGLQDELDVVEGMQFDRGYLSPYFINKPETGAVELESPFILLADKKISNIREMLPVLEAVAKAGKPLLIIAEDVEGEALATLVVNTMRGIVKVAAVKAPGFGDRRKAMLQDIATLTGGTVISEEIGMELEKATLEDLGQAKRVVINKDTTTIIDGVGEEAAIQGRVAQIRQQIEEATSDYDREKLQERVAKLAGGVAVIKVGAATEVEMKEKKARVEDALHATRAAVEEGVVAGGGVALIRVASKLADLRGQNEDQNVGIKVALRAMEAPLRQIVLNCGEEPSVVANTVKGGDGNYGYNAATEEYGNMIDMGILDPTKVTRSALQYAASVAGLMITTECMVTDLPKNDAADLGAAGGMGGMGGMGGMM", "experiment": "MST; Cpn60 labelled with NT-647-NHS, serial dilutions of Cpn10 in buffer C with 1 mM ADP, 25 °C, Monolith NT.115, MST power 80%", "conditions": "both partners purified"}}, "data": [{"molecule": "Cpn60 from Pseudoalteromonas haloplanktis (natural protein)", "values": [{"measurement": "stoichiometry N", "setting": "[1]", "result": 14}, {"measurement": "stoichiometry N", "setting": "[2]", "result": 14}, {"measurement": "stoichiometry N", "setting": "[3]", "result": 14}]}, {"molecule": "α-casein (from UniProt P02662 16-214) (natural protein)", "values": [{"measurement": "stimulation of Ph Cpn60 ATPase by a five-fold molar excess of α-casein (10 °C and 25 °C, with or without Ph Cpn10)", "setting": "[4]", "result": 3, "unit": "fold"}]}, {"molecule": "single-ring SR-GroEL (from UniProt P0A6F5 1-548) (natural protein)", "values": [{"measurement": "stoichiometry N", "setting": "[5]", "result": 7}]}, {"molecule": "B1", "values": [{"measurement": "Kd", "setting": "[6]", "result": 352, "unit": "nM"}]}, {"molecule": "B2", "values": [{"measurement": "Kd", "setting": "Escherichia coli GroEL", "result": "8.8 ± 1.8", "unit": "nM"}]}]}
